Series [1] deals with biotinyl-Met-oxazolone. Put plainly: self-aminoacylation, catalytic enhancement (BMO) (fold over background); higher = more active; k-Seq, kA / k0A0; sequences stand for … in GGGAAUGGAUCCACAUCUACGAAUUC…UUCACUGCAGACUUGACGAAGCUG
The method, boiled down: (§1)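 Mutagenized RNA pools with a 21-nt variable region (0.43 μM) were reacted with each biotinyl-aminoacyl-oxazolone at 2–1250 μM for 90 minutes at room temperature, in 50 μL HEPES/NaCl/KCl/MgCl2/CaCl2 buffer containing 5% acetonitrile at pH 6.9–7.0. RNA captured on streptavidin was quantified by triplicate qPCR and by Illumina sequencing. The fraction reacted for each sequence was fit to a pseudo-first-order model with bootstrapping, and catalytic enhancement is the median kA divided by the uncatalyzed rate, taken as the low-activity peak of a bimodal Gaussian fit.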

The subject of series [2] is biotinyl-Phe-oxazolone. The series can be described thus: self-aminoacylation, catalytic enhancement (BFO) (fold over background); higher = more active; k-Seq, kA / k0A0; sequences stand for … in GGGAAUGGAUCCACAUCUACGAAUUC…UUCACUGCAGACUUGACGAAGCUG
A digest of the protocol: as §1

Series [3] has as its system biotinyl-Ile-oxazolone. Put plainly: self-aminoacylation, catalytic enhancement (BIO) (fold over background); higher = more active; k-Seq, kA / k0A0; sequences stand for … in GGGAAUGGAUCCACAUCUACGAAUUC…UUCACUGCAGACUUGACGAAGCUG
The method, boiled down: as §1

In series [4] the test system is biotinyl-Val-oxazolone. Put plainly: self-aminoacylation, catalytic enhancement (BVO) (fold over background); higher = more active; k-Seq, kA / k0A0; sequences stand for … in GGGAAUGGAUCCACAUCUACGAAUUC…UUCACUGCAGACUUGACGAAGCUG
A digest of the protocol: as §1

The subject of series [5] is biotinyl-Trp-oxazolone. Put plainly: self-aminoacylation, catalytic enhancement (BWO) (fold over background); higher = more active; k-Seq, kA / k0A0; sequences stand for … in GGGAAUGGAUCCACAUCUACGAAUUC…UUCACUGCAGACUUGACGAAGCUG
A digest of the protocol: as §1

Series [6] concerns biotinyl-Leu-oxazolone. Put plainly: self-aminoacylation, catalytic enhancement (BLO) (fold over background); higher = more active; k-Seq, kA / k0A0; sequences stand for … in GGGAAUGGAUCCACAUCUACGAAUUC…UUCACUGCAGACUUGACGAAGCUG
The method, boiled down:
as §1

Fewer inactive variants are shown than the library holds.

Take “AUUCACCUAAGUCACCGGGUG [Fam2.2 aminoacylation ribozyme variant]”: the self-aminoacylation in series [1] worked out at 7.03; in series [2] it was 53.8; in series [3], 4.72; in series [4], 4.88; in series [5] it was 5.67; in series [6], 8.36.
Turning to “CCACACUUCAAGCCAUCGGCC [Fam1B.1 aminoacylation ribozyme variant]”, the self-aminoacylation in series [1] came out at 3.33; in series [2], 5.27; in series [3], 2.98; in series [4], 5; in series [5], 4.97; in series [6], 2.85.
“AUUCUCCUAGGUCAUCGGGUA [Fam2.2 aminoacylation ribozyme variant]”: the self-aminoacylation in series [1] came to 7.07; in series [2], 29.6; in series [3] it was 4.71; in series [4], 4.84; in series [5], 7.31; in series [6], 8.96.
“CCACACUUCAAGCGAUCGGUU [Fam1B.1 aminoacylation ribozyme variant]”: the self-aminoacylation came out at 1.48 in series [1]; 3.6 in series [2]; 1.77 in series [3]; 2.08 in series [4]; 1.77 in series [5]; 1.53 in series [6].
On to “AGGUUUGCUAAUAGGCGCAAG [Fam3.1 aminoacylation ribozyme variant]”, for which the self-aminoacylation in series [1] came out at 0.736; in series [2], 1.16; in series [3], 0.85; in series [4], 0.734; in series [5] it was 1.18; in series [6] it was 0.626.
Consider “GUUACCCUGGUCAUCGGGUGA [Fam2.1 aminoacylation ribozyme variant]”, for which the self-aminoacylation is 89.7 in series [1]; 503 in series [2]; 30.9 in series [3]; 36.7 in series [4]; 90.7 in series [5]; 92.1 in series [6].
For the sequence “CUACUUGAAACUAUCGGUCUG [Fam1A.1 aminoacylation ribozyme variant]”, the self-aminoacylation in series [1] was found to be 0.986; in series [2], 0.599; in series [3], 1.03; in series [4], 0.975; in series [5] it was 0.685; in series [6], 0.941.
On to “ACUACCCUGGUCAUCGAGCGA [Fam2.1 aminoacylation ribozyme variant]”, for which the self-aminoacylation in series [1] amounted to 1.91; in series [2], 2.05; in series [3], 2.04; in series [4] it was 1.94; in series [5], 1.82; in series [6], 1.95.
On to “AUUCACAUAGGUCAUCGGGUG [Fam2.2 aminoacylation ribozyme variant]”, for which the self-aminoacylation is 8.47 in series [1]; 65.2 in series [2]; 5.09 in series [3]; 5.09 in series [4]; 7.83 in series [5]; 10.6 in series [6].
Take “AUUAACCUAGGUCAUCGGGUG [Fam2.2 aminoacylation ribozyme variant]”: the self-aminoacylation is 33.2 in series [1]; 248 in series [2]; 19.7 in series [3]; 15.8 in series [4]; 22.8 in series [5]; 46.3 in series [6].
As to “AUUAGCCUGAUCAUCGAGUGA [Fam2.1 aminoacylation ribozyme variant]”, the self-aminoacylation in series [1] came to 10.4; in series [2], 46.7; in series [3] it was 4.82; in series [4], 4.4; in series [5], 11; in series [6] it was 10.6.
Consider “AAGUUUGCUAAUAUCCGCAAG [Fam3.1 aminoacylation ribozyme variant]”, for which the self-aminoacylation in series [1] came to 0.725; in series [2] it was 1.18; in series [3], 0.911; in series [4] it was 0.886; in series [5], 0.739; in series [6], 0.845.
As to “AUUAACUUGGUCAUCGAGUGA [Fam2.1 aminoacylation ribozyme variant]”, the self-aminoacylation in series [1] came out at 3.67; in series [2] it was 3.99; in series [3], 2.9; in series [4], 2.48; in series [5] it was 4.83; in series [6], 4.16.
“AUUCGCCUAGGUCAUGGGGUG [Fam2.2 aminoacylation ribozyme variant]”: the self-aminoacylation in series [1] was 5.41; in series [2], 31.7; in series [3], 3.88; in series [4], 4.43; in series [5], 5.56; in series [6], 6.48.
As for “UGUACCCUGGUCAUCGAGUGA [Fam2.1 aminoacylation ribozyme variant]”, the self-aminoacylation in series [1] amounted to 5.72; in series [2], 10.3; in series [3], 4.06; in series [4], 3.66; in series [5], 8.02; in series [6], 7.2.
For the sequence “AUGCACCUAGGCCAUCGGGUG [Fam2.2 aminoacylation ribozyme variant]”, the self-aminoacylation in series [1] was 3.87; in series [2], 27.6; in series [3] it was 3.32; in series [4], 3.41; in series [5] it was 4.46; in series [6] it was 4.53.
On to “AAGUUUGCUGAUAGUCGCAAA [Fam3.1 aminoacylation ribozyme variant]”, for which the self-aminoacylation in series [1] stood at 1.38; in series [2] it was 3.33; in series [3], 1.71; in series [4], 1.55; in series [5], 1.19; in series [6], 1.6.
For “AUUCAUCUAGGUUAUCGGGUG [Fam2.2 aminoacylation ribozyme variant]”, the self-aminoacylation stood at 3.02 in series [1]; 28.8 in series [2]; 2.37 in series [3]; 2.44 in series [4]; 3.36 in series [5]; 3.86 in series [6].
With “CCACACUUCAAGCACUCGGCC [Fam1B.1 aminoacylation ribozyme variant]”, the self-aminoacylation is 2.89 in series [1]; 15.9 in series [2]; 3.06 in series [3]; 4.04 in series [4]; 5.51 in series [5]; 3.19 in series [6].
On to “AUUCACCUAGGAAAUCGGGUG [Fam2.2 aminoacylation ribozyme variant]”, for which the self-aminoacylation amounted to 6.99 in series [1]; 53 in series [2]; 4.03 in series [3]; 3.5 in series [4]; 5.87 in series [5]; 8.95 in series [6].
For “CUAUUUCAAACAAUCGGUCUC [Fam1A.1 aminoacylation ribozyme variant]”, the self-aminoacylation was 0.775 in series [1]; 7.11 in series [2]; 0.818 in series [3]; 0.835 in series [4]; 3.67 in series [5]; 0.785 in series [6].
